Data reported in the supplement of paper PMC12636428.

Test system: Saccharomyces cerevisiae
Assay: transcriptional activation domain activity (GFP:mCherry ratio, weighted mean of sorted bins, harmonized to initial dataset scale) (arbitrary fluorescence ratio units); higher = stronger transcriptional activation
Conditions: beta-estradiol 1 µM; induction time 4 h
Method in brief: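 Activation activity, the read-weighted mean of bin median fluorescence averaged across barcodes, was linearly mapped onto the scale of the initial dataset. It was measured for barcoded protein tiles fused to an estradiol-inducible synthetic transcription factor at URA3 in GFP-reporter yeast diploids. Cultures diluted 1:5 into SC with 1 uM beta-estradiol were held 4 hours at 30 °C, sorted into 8 bins by GFP:mCherry ratio, and barcode-sequenced, and tiles under 50 reads were discarded.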

Sequence | transcriptional activation domain activity
MWFLHPLPFPLASSTWLHFVVLSFYIFFFLPFPSCALVLFWCWFFLLVRLLTS | 39400
MWGILYSLQYHQNFPFVACFLSDLFEKIIHHHFFYFSLSSFSLFLIFHFWFFF | 52000
MWGRWVGWSLIFLELYLDHLILQFIPPTRFIVTLFFFFSFLFIWYFCLLSLSL | 28800
MWGVLCNWLKHNGMVFSVQCFTFDFLFSFPLSLFFPFFLFSFFLFFLYSFAII | 50100
MWGWNGKEIHFSFTEVFLKFLIWLVHSFLRSFLGFSNGFFLTFPLVGFFFSFL | 54800
MWHWLFYLFFSFFLQFLLFLFSFSSSFNFFYFCFPFLLFSVSFFCFCFWFLFF | 50000
MWLFLLMFYIVLWLRKAGAFISSSFSSFSVLSFSYLFLCGYLPFSFLFLTFSL | 54200
MWLIWLIWLLALLVDLFSFSVLFFFSLSLFLSFFWFFFFSFFQSFFPFLAVSF | 66900
MWLLFYARACLSLLWFTSARVLFFSSFLTFSFLIIWLLGSFDIFRILVLFSFF | 87100
MWLLHFSFLRVLPLFLLMLRCLLLAICIVTYINGPTLVFSHPLITIYSLTLLA | 56200
MWLVEVQLLHQSHSLLSHIICLFFLSPHLPSFVFSGALFVYSVMLVSLFFLYL | 37400
MWLVKCTYILYIYIFGKWKVREVLELTRVFFFFFSFFFFLFFFPFFFFFFFFF | 59900
MWLVVCIDGPVLSVLPRTILYLCVLLLLTLLASCSERSFAFARPLSSSCIFSY | 42600
MWMSLLHFHTFTIFLTFFFFFFFFFCLPPFVSLLTLFLVEIFLSWREGFLPHP | 39400
MWSFFFFLFFFGFCFLVFWPNLFFLFFFHDSCPFVLLLFLFHLFHLPVFPRSG | 40300
MWSLCILLVGLLIWYIVFFSYPPPNRIYLFSPSLGVCLVSFFFFLWGLFGGVF | 53400
MWTFGMIQLYYSPYWGDTRWFWLDYPKTLLSPTFKWYYLIQFAFWLQQLLLAL | 73400
MWTQASVATLPTLPFTGISLSYFPCLFLLFSPDIFIFLFFLLFIYLFIFSFLL | 55900
MWTSLGCYSCLLCLLLHVVYVPSLLVPSQHPFLSSCLGAVGLTFTWMICCFFP | 56500
MWTVLVGFIRGFLLLLWHLAYPFHFFLYFQLILSSHRLEWLISLFVDAMTGIA | 33400
MWVGELLGYYCTMALSKALGCKVRLLRAWAEMHNICGFYSRDSIPCRMYASRV | 61800
MWVINRAFLEFYFIFCIVFTVHLVCFCFFWLIFLFCLLHASFLLCDFPFFFYY | 41100
MWVLGRSWAVLSTFFLSLLRLFFCLLFLLGLDFWSGLLPFLCFFLLCSYCFSL | 56400
MWVTQHCLLATQWALLCVPPFRGLLLLLLFLYVFKFLFGLRIFILYLVSMLVM | 46100
MWWAFIFFFLLSFFLFLLFLGWLAGWQVCCWGFWFLVGFHFGWLGWFGCGITS | 32000

Sequence | transcriptional activation domain activity
MWWALCFFFFLFIFVILGFVGLLVCWFVGWLAGTFVGFSGSWFSFWVAWVVWV | 60500
MWWRADGHYLNPLSQIFFSCEFWFFLLLFQMGDGFAFFFFLSIGLVTSFFFFF | 35400
MWYFSRCTRWFLPLLLLPMPTAPPYFLLLFLLSFILHAKPCFYCVILITSLFI | 60200
MYCACGQDGKSPFVMRCVLCFGFVFLFLFLLFFSSLLISLLFIFSHCSMLLPI | 23000
MYCFIILYMYILLLFFSRSVYFSLFFFFFCLHFYSIFFFFICSLFIYLFIYLF | 63500
MYCMRYFAPLFLLPFPDAPPFFVVLSLISFFLHQKPCIYCVFLLLALFSSTCY | 61400
MYCMRYFVPLFLLPFPDSPPIFVILFLISFFLHQKPCIYCTLLLFALFSSTCF | 48600
MYCMRYFVPLLLLPFPDAPPVFVILFLISFFLHQKPCIYCTLLLIALFCSTCY | 72300
MYCMRYFVPLLLLPFPDSPPIFVILFLISFFLHQKPCIYCTLLLFALFSSTCF | 57700
MYCSLQTLLFRFFAYWQGMTFFGFLFCFHVLGSQNLFFGSCFVLLLMQLLCLF | 58900
MYCVSFSHFYPPPLSFFHYGFDIFLFIFLIFFFCCPFLFAQVVVGYAICWYHT | 51300
MYDACLCGRLGFFYLLLVFFLSSVFHSHLFFLPFFGLFYLLRYFFFNFSTFVA | 52700
MYDFFLFLSFLPFPSPSLLCFLILFSFIYLLLFHFYIYIYICLFLSFYIHAFV | 10600
MYECACFPFPFFLSFFFFLSSFSYGCPFCFVGYRFPLLPLLLSVFLFLGLCLM | 33800
MYECLAECEFLARLYFFLLHCCVYCTIIVYIFFLLVNCYAGVVSRLLELQTLR | 41100
MYELAFFFFFFLFRLFLSLFRGGCFWVQIFVFIPEYLVYSILFSFFFLLLFTF | 47500
MYELIGQGVSFFCCYFACVCFALHFCFGPYFGLWLWHCIFKTFFFLLVFFPNY | 61200
MYETNLFQWKLSIGFGFVLDYFIGLFLLDFFILDCIFYLLINSAICVFYSLSG | 58100
MYFASYIFISFFSLFISIIHPFKIYYILLYTHHIIISIQLLLPFHFLTSIILS | 80300
MYFAYFYLLPEMSSLSFFPFLSVYVFFIFFSSLICFFFFLSMGFLCLFTFLLV | 45200
MYFCLDKLRRLACFLSLFFVSFFLFLCLTLFFALLFIISLSLLMYRCVLISLC | 14000
MYFIILAFVWCFCSCFCFRCVAFWWPLSLSLCLSVGIYLLAFFFFFTTLVLVY | 26200
MYFVYTYSGLAFFFFFSFFWCTSIYLNILLVLFYLALGFCKVYFLLLFYLPKT | 39900
MYGHVWMGVLHCKLLLVGFLWVLFTLMPDMYIHGREGINSAYTIGHSFTIGFA | 47400
MYGLVFLLPLFCSLLLFLFCFCCLSPRPTWGLFVSIELFLQARDGLVNWLLAF | 50100

Sequence | transcriptional activation domain activity
MYGNLTYTEWSRYLADMLSMQKLLFVSVEANCRERILLLRISGRCPQLCPLWA | 47200
MYGYCLLFYLFLFSFISLFYFYFYFYILYFLLLILIFFYFTTVLVSFHFILFF | 43400
MYHAKFLYLLLGFLVYFLSSQTSINVYYISLNPFLFLAHPTILLIPLFPFRYT | 39700
MYHALHKSGLSDTYIIQDVGVPFDAVEAFYKWLHETLHIYPLWLCPIRVRRYT | 44700
MYHIPWPQVLWVGYQLRPTQIMGIFCSHLSVVLLVLPTPYYFLFHVLFLLWAS | 48900
MYHISCWFIFFHLLMSHIFIFIFIFLLLLFYKCIIFLFLYTYFFYFLVFSRLL | 25700
MYHISIQLLSVFISPSTPLFPDFLQISISFHLYSFFLFAIVIFFYFICLFLFV | 61100
MYHITVFSLPLNLYCARCFALTLTILMGKSFLMGFINVFNRICTLLVTTLFLI | 70100
MYHIVIIIPLCLLLFGPFILATDSPFCIVRHPFFFFFLFYQSFIAFTFFFFFT | 62700
MYHPPWVLVGKCGSKEVRDELARHQLIACSRDLSVHVLKVDLLRKSWLLGHWR | 58900
MYHSIQLGPVVSLLSLALSFIFFFLSPFFFFPFLALSFAPLFVILIFFFISTC | 29000
MYICIYLLLGFVVWGISLICLVVIVILYILDNSFCSPYTSCSTSFPFLISLFY | 40300
MYICVRKVYVHFDMNLRVYWIVAIMVKCICGLVELCLITSPPYIMLVLSKLFL | 32100
MYILDKIKGEKGKQEGGEREAERGRGGAGRGEQEQEGGAGAGRGSRSKKGEQG | 30700
MYILFFFNIYYLYSILHLFCFRFFFISLFSFSFSLLSLLTYFLQYYIIIYLKI | 58200
MYILILIFFLSFFLSFLNGSILYLGIVLLPCAYRRVYTVVCLVFTIQIVLRIK | 61400
MYILTIIPFFKHMSFFSFFLSCFFMSLLIVLLLLLLLLFSLLLLLLFFFPRPL | 54400
MYIPPQSSVFLDIDSWGLIPVTCHLWLVMRWMYEAVMLPYLSQDGRHIVKFRY | 40700
MYIQYNILLTFPFLFLHFLFLFFFFFFFFLLFFFFLSRSPLTPSLAPPSPLLT | 65300
MYISLFITYLYTYILELCFDFLTIFIIYFHFFSASCMLHSISPLLFICFSFFQ | 57700
MYKSYIFFYLPLLFNCFIMSFFFLYEMPFFYLGRMLHFLLSLISGSWFFFYLF | 50900
MYLAVHWFYISGCTHHIFMIFLFMSKFLCLLMLLLSSCVVLSSFRTIFVLSFS | 62700
MYLEVRCQLLGCMAIWWDNWFRLDLLSLVSAYRILLLCMGEFLIWKFWFIRLF | 60000
MYLFFFFFFFGWVLSLLLYVFFGLGIIGIGIVLFVFVLAFFFLFLGGIFFCGL | 43900
